Patent US20090004190A1 (published 2009)

B1: RAGE fusion protein TTP-3000 (Fc fusion)
chain: QNITARIGEPLVLKCKGAPKKPPQRLEWKLNTGRTEAWKVLSPQGGGPWDSVARVLPNGSLFLPAVGIQDEGIFRCQAMNRNGKETKSNYRVRVYQIPGKPEIVDSASELTAGPSVFLFPPKPKDTLMISRTPEVTCVVVDVSHEDPEVKFNWYVDGVEVHNAKTKPREEQYNSTYRVVSVLTVLHQDWLNGKEYKCKVSNKALPAPIEKTISKAKGQPREPQVYTLPPSRDELTKNQVSLTCLVKGFYPSDIAVEWESNGQPENNYKTTPPVLDSDGSFFLYSKLTVDKSRWQQGNVFSCSVMHEALHNHYTQKSLSLSPGK
notes: also called TT3; three domain RAGE fusion protein
B2: RAGE fusion protein TTP-4000 (Fc fusion)
chain: QNITARIGEPLVLKCKGAPKKPPQRLEWKLNTGRTEAWKVLSPQGGGPWDSVARVLPNGSLFLPAVGIQDEGIFRCQAMNRNGKETKSNYRVRVYQIPGKPEIVDSASELTAGVPNKVGTCVSEGSYPAGTLSWHLDGKPLVPNEKGVSVKEQTRRHPETGLFTLQSELMVTPARGGDPRPTFSCSFSPGLPRHRALRTAPIQPRVWEPVPLEEVQLVVEPEGGAVAPPSVFLFPPKPKDTLMISRTPEVTCVVVDVSHEDPEVKFNWYVDGVEVHNAKTKPREEQYNSTYRVVSVLTVLHQDWLNGKEYKCKVSNKALPAPIEKTISKAKGQPREPQVYTLPPSRDELTKNQVSLTCLVKGFYPSDIAVEWESNGQPENNYKTTPPVLDSDGSFFLYSKLTVDKSRWQQGNVFSCSVMHEALHNHYTQKSLSLSPGK
modifications: N-terminal residue glutamine (Q) or pyroglutamic acid (pE) or a mixture thereof; glycosylation sites at N2 and N288 (numbering of SEQ ID NO: 34 or 56); C-terminal residue of CH3 may be cleaved off
notes: No immunoglobulin hinge; Made in CHO cells, purified on Protein A; also called TT4; four domain RAGE fusion protein

Tests used:
[1] = target: T1, Amyloid Beta (1-40) from Biosource (UniProt P05067 672-711); experiment: plate ELISA, immobilized ligand, dilutions of fusion protein, absorbance at 405 nm
T1 construct: domain: Amyloid Beta (1-40); Immobilized on Maxisorb plates at 5 micrograms per well; also called Abeta; A-beta
Protocol: (§1) Known RAGE ligands were coated onto the surface of Maxisorb plates at a concentration of 5 micrograms per well. Plates were incubated at 4° C. overnight. Following ligand incubation, plates were aspirated and a blocking buffer of 1% BSA in 50 mM imidizole buffer (pH 7.2) was added to the plates for 1 hour at room temperature. The plates were then aspirated and/or washed with wash buffer (20 mM Imidizole, 150 mM NaCl, 0.05% Tween-20, 5 mM CaCl₂ and 5 mM MgCl₂, pH 7.2). […] The RAGE fusion protein was added at increasing dilutions of the initial sample. The RAGE fusion protein was allowed to incubate with the immobilized ligand at 37° C. for one hour after which the plate was washed and assayed for binding of the RAGE fusion protein. Binding was detected by the addition of an immunodetection complex containing a monoclonal mouse anti-human IgG1 diluted 1:11,000 to a final assay concentration (FAC) of 21 ng/100 μL, a biotinylated goat anti-mouse IgG diluted 1:500, to a FAC of […], and an avidin-linked alkaline phosphatase. […] Binding of the complex to the immobilized RAGE fusion protein was quantified by measuring conversion of PNPP to para-nitrophenol (PNP) which was measured spectrophotometrically at 405 nm.

BSA = target: T2, BSA (UniProt P02769 25-607); experiment: plate ELISA, BSA-only coating, detection with anti-human IgG1 complex, absorbance at 405 nm
T2 construct: Negative control coating; also called BSA coating alone; BSA+wash
Protocol: as §1

[2] = target: T1, Amyloid Beta (1-40) from Biosource; experiment: plate assay, immobilized ligand (A beta=Amyloid beta 1-40), fusion protein 0 to 360 nM, anti-IgG polyclonal antibody with alkaline phosphatase
Protocol: The ligands are immobilized on a microtiter plate and incubated in the presence of increasing concentrations of RAGE fusion protein from 0 to 360 nM. The RAGE fusion protein-ligand interaction is detected using a polyclonal antibody conjugated with alkaline phosphatase that is specific for the IgG portion of the fusion chimera. […] HMG1B=Ampoterin, CML=Carboxymethyl Lysine, A beta=Amyloid beta 1-40.

T1 sequence (P05067 672-711 limits assumed): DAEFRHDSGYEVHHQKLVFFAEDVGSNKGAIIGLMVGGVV
T2 sequence (P02769 25-607 limits assumed): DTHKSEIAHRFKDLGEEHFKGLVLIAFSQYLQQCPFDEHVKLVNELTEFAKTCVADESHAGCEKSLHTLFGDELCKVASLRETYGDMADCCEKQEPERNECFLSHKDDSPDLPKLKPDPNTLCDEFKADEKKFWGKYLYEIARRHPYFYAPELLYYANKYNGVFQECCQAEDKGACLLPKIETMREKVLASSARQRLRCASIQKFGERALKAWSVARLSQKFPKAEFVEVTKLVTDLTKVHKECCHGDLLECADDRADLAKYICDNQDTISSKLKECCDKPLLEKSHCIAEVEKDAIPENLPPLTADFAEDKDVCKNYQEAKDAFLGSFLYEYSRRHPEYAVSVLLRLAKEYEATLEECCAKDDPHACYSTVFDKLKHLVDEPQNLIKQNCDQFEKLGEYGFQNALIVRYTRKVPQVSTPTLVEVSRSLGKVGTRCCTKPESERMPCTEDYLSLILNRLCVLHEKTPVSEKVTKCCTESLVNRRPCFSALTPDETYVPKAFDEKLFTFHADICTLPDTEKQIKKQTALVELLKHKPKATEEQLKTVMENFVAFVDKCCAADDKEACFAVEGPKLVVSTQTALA

Row | Binder | binding result [1] | binding result (BSA) | binding result [2]
1 | B1 | binds | no binding | 
2 | B2 |  | no binding | binds
